The record followed here is patent US20020150993A1 (Genentech, published 2002).

First the molecules themselves.
B3: CD95 immunoadhesin (Fc fusion, UniProt P25445 26-173, looked up)
chain: QVTDINSKGLELRKTVTTVETQNLEGLHHDGQFCHKPCPPGERKARDCTVNGDEPDCVPCQEGKEYTDKAHFSSKCRRCRLCDEGHGLEVEINCTRTQNTKCRCKPNFFCNSTVCEHCDPCTKCEHGIIKECTLTSNTKCKEEGSRSN
notes: extracellular domain; also called Fas-IgG; CD95-IgG; not shown: hinge and Fc portion of human IgG, as described in Ashkenazi et al. 1991
B4: full-length DNA19355 polypeptide on cells (ligand)
chain: MCLSHLENMPLSHSRTQGAQRSSWKLWLFCSIVMLLFLCSFSWLIFIFLQLETAKEPCMAKFGPLPSKWQMASSEPPCVNKVSDWKLEILQNGLYLIYGQVAPNANYNDVAPFEVRLYKNKDMIQTLTNKSKIQNVGGTYELHVGDTIDLIFNSEHQVLKNNTYWGIILLANPQFIS
notes: also called DNA19355 ligand; polypeptide encoded by DNA19355-1150

In assay [1] the target is B4. Put plainly: FACS on 293 cells transiently transfected with full-length DNA19355. The protocol:
In another assay, human 293 cells were transiently transfected with full-length DNA19355 and the ability of receptor immunoadhesin constructs for PRO364, TNFR1, HVEM, and DcR1 to t bind to those transfected cells was determined by FACS analysis. The 293 cells were maintained in high glucose DMEM media supplemented with 10% fetal bovine serum (FBS), 2 mM glutamine, 100 microgram/ml penicillin, and 100 microgram/ml streptomycin. The transfected cells (1×10⁵) were incubated for 60 minutes at 4° C. in 200 microliters 2% FBS/PBS with 1 microgram of the respective receptor or ligand immunoadhesin. The cells were then washed with 2% FBS/PBS, stained with R-phycoerythrin-conjugated goat anti-human antibody (Jackson Immunoresearch, West Grove, Pa.). Next, the cells were analyzed by FACS. To test the binding of the respective immunoadhesins to the transiently transfected cells, an expression vector (pRK5-CD4; Smith et al., Science, 328:1704-1707 (1987)) for CD4 was co-transfected with DNA19355 expression vector (see above). FITC-conjugated anti-CD4 (Pharmingen, San Diego, Calif.) was then used to identify and gate the transfected cell population in the FACS analysis.

The target of assay [2] is T1, TNFR1 immunoadhesin (human, UniProt P19438 30-211, limits assumed).
T1 construct: extracellular domain; also called TNFR1-IgG; not shown: hinge and Fc portion of human IgG, as described in Ashkenazi et al. 1991
T1 sequence (looked up): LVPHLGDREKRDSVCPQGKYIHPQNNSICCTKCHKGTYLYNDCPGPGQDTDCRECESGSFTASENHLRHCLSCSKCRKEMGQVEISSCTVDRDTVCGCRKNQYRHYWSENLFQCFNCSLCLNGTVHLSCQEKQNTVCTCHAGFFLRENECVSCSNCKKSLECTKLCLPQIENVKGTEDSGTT
In words: co-precipitation with protein A-sepharose, SDS-PAGE, autoradiography. The procedure:
(§1) The soluble DNA19355 ECD molecule was then labeled with […], for testing its ability to interact with the PRO364 immunoadhesin. For comparison, immunoadhesin constructs were also made of the following TNF receptor family members: CD95, DR4, DR5, TNFR1, TNFR2, and Apo-3. CD95, DR4, DR5, TNFR1, TNFR2, and Apo-3 immunoadhesins were prepared by fusing each receptor's ECD to the hinge and Fc portion of human IgG, as described previously for TNFR1 [Ashkenazi et al., Proc. Natl. Acad. Sci., 88:10535-10539 (1991)]. The respective TNF receptor family members are described (and relevant references cited) in the Background of the Invention section.
(§2) For the co-precipitation assay, each immunoadhesin (5 microgram) was incubated with ¹²⁵I-labeled soluble DNA19355 polypeptide (1 microgram) for 1 hour at 24° C., followed by protein A-sepharose for 30 minutes on ice. The reaction mixtures were spun down and washed several times in PBS, boiled in SDS-PAGE buffer containing 20 mM dithiothreitol and then resolved by SDS-PAGE and autoradiography.

The target of assay [3] is T2, TNFR2 immunoadhesin (human, UniProt P20333 23-257, limits assumed).
T2 construct: extracellular domain; also called TNFR2-IgG; not shown: hinge and Fc portion of human IgG, as described in Ashkenazi et al. 1991
T2 sequence (looked up): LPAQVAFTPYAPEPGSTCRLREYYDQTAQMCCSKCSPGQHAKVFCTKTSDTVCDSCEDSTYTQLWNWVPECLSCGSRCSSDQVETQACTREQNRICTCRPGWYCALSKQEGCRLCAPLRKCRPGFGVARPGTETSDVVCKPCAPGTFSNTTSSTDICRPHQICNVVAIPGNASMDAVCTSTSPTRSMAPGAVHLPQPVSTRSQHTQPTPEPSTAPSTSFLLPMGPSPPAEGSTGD
The assay is described as above. The procedure:
as §1, §2

Assay [4] has as its target T3, DR4 immunoadhesin (human, UniProt O00220 24-239, limits assumed).
T3 construct: extracellular domain; also called DR4-IgG; not shown: hinge and Fc portion of human IgG, as described in Ashkenazi et al. 1991
T3 sequence (looked up): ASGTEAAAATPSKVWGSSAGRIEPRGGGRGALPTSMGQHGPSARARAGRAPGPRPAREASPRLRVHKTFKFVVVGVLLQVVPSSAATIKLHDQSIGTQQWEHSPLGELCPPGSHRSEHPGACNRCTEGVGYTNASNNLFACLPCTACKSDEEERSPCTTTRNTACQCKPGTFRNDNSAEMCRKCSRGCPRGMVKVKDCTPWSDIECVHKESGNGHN
The description is as above. The procedure:
as §1, §2

Assay [5] has as its target T4, DR5 immunoadhesin (human, UniProt O14763 56-210, limits assumed).
T4 construct: extracellular domain; also called DR5-IgG; Apo-2; not shown: hinge and Fc portion of human IgG, as described in Ashkenazi et al. 1991
Described as above. The protocol:
as §1, §2

The target of assay [6] is T5, Apo-3 immunoadhesin (human, UniProt Q93038 25-199).
T5 construct: extracellular domain; also called Apo-3-IgG; DR3; not shown: hinge and Fc portion of human IgG, as described in Ashkenazi et al. 1991
T5 sequence (looked up): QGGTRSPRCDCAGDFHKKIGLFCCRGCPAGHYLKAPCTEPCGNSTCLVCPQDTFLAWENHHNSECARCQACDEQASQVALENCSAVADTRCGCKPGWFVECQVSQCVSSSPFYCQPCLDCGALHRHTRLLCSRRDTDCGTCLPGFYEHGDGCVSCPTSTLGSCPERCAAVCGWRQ
Described as above. The protocol: as §1, §2

In assay [7] the target is B3. Described as above. The protocol: as §1, §2
Assay [8] has as its target B4. Put plainly: FACS on HUVEC (endogenous DNA19355 transcripts). The procedure: (§3) The DNA19355 polypeptide was identified in a human umbilical vein endothelial cell (HUVEC) library, and the DNA19355 polypeptide transcripts are readily detectable in HUVEC by RT-PCR (data not shown). […] HUVEC were purchased from Cell Systems (Kirkland, Wash.) and grown in a 50:50 mix of Ham's F12 and Low Glucose DMEM media containing […] fetal bovine serum, 2 mM L-glutamine, 10 mM Hepes, and 10 ng/ml basic FGF. Cells were FACS sorted with PBS, PRO364-IgG, TNFR1-IgG or Fas-IgG as a primary antibody and goat anti-human F(ab′)2 conjugated to phycoerythrin (CalTag, Burlingame, Calif.).

Assay [9] deals with T1, TNFR1 immunoadhesin. In words: FACS on HUVEC (endogenous DNA19355 transcripts). The protocol: as §3

B1: PRO364-IgG (PRO364 extracellular domain immunoadhesin) (Fc fusion)
chain: QRPTGGPGCGPGRLLLGTGTDARCCRVHTTRCCRDYPGEECCSEWDCMCVQPEFHCGDPCCTTCRHHPCPPGQGVQSQGKFSFGFQCIDCASGTFSGGHEGHCKPWTDCTQFGFLTVFPGNKTHNAVCVPGSPPAE
notes: Expressed in insect cells with Baculovirus; also called PRO364 immunoadhesin; PRO364 ECD C-terminus IgG-Fc tagged form; not shown: IgG Fc fused at the C-terminus
As for B1, the binding result in assay [1] was “binds”.

B2: soluble DNA19355 polypeptide (ECD, His10-tagged, 125I-labeled) (ligand)
chain: MGHHHHHHHHHHSSGHIDDDDKHMETAKEPCMAKFGPLPSKWQMASSEPPCVNKVSDWKLEILQNGLYLIYGQVAPNANYNDVAPFEVRLYKNKDMIQTLTNKSKIQNVGGTYELHVGDTIDLIFNSEHQVLKNNTYWGIILLANPQFIS
modifications: 125I-labeled (radioiodinated)
notes: Expressed in E. coli and purified on Nickel-sepharose; Removal of the tag is not reported; also called soluble DNA19355 ECD molecule; radioiodinated DNA19355 polypeptide
On to B2, for which the binding result in assay [2], in [3], in [4], in [5], in [6] and in [7] was “no binding” throughout.

As for B3, the binding result in assay [8] is reported as “no binding”.

As for B4, the binding result in assay [9] is reported as “no binding”.
